Data: article PMC6474821
Read-outs that look alike come from different tables or passages of the source.

What was measured:
Experiment in all cases: fluorescence anisotropy
[1] = target: htCREBD,4 (unphosphorylated) (UniProt P15337-1 1-341, C90A;V118D;C300S;C310S;C337S;del162-272)
[2] = target: T1, CREB bZip (Rattus norvegicus, UniProt P15337-1 270-341, C300S;C310S;C337S)
T1 sequence: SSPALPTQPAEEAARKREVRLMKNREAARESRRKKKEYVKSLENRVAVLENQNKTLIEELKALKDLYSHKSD

[3] = target: T1, CREB bZip; remark: listed apart in the source

B1: half-site CRE 14-mer (dsDNA)
DNA 1: ATCTGCGTCAGAGT
DNA 2: ACTCTGACGCAGAT
binding result [1]: binds
Kd [2]: ~38 nM
Kd [3]: ~32 nM
